Assay results from patent US20100278865A1.

Target: E2 protein of J6/JFH-1 (3×FLAG) virus particles (hepatitis C virus, J6CF strain (genotype 2a))
Assay: batch capture of virus particles on M2 antibody agarose, FLAG peptide elution, HCV Core ELISA of eluates

## anti-FLAG monoclonal antibody (M2 antibody, Sigma)
  purification efficiency: 5%
